The assay has as its target T1, GST-GABARAPL2 (UniProt P60520 1-117).
T1 construct: GABARAPL2 of the bought GST fusion protein; source: bought: Proteintech (Ag1155)
Briefly: pull-down; competitive GST pull-down: GST-GABARAPL2 on glutathione-conjugated Sepharose beads, SIK2 protein in solution, LIR peptide at 0, 5, 10, 20, 40 μmol/L; immunoblot. Particulars: both partners purified. (In western blotting, separated proteins are transferred to a membrane and probed.)

From article PMC12548284, “SIK2-mediated phosphorylation of GABARAPL2 facilitates autophagosome–lysosome fusion and rescues neurodegeneration in an Alzheimer’s disease model” (Translational Neurodegeneration, 2025) come the findings set out here.

T1 sequence (P60520 whole entry, the tested form may be a part): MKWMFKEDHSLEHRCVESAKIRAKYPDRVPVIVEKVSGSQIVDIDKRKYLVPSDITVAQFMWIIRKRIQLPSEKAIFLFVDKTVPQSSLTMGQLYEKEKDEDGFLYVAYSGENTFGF

B1: LC3-interacting region (LIR) 326–333 (FAAIYFLL) peptide (peptide)
peptide: FAAIYFLL
notes: SIK2 residues 326-333, the canonical LIR motif within 290-550; also called LIR peptide; source: synthetic peptide; bought: Sangon Biotech
B1: the binding result is reported as “binds”.
